Data set [1] concerns 70S ribosome pretranslocation complex, deacylated tRNAfMet in P site, A site. Nature of the data set: nitrocellulose filter binding, koff/kon. The following applies: 7 mM Mg2+, aminoacylated with fMet-Val dipeptide, MST: buffer TAKM7 (7 mM Mg2+; full composition not in material), 30 min at 37 C, A-site peptidyl-tRNA: buffer TAKM with 7-20 mM Mg2+.
For data set [2], the system named is 30S ribosomal subunit initiation complex with IF1, IF2, IF3 and BPY-Met-tRNAfMet. Put plainly: MST. The following applies: MST: buffer TAKM7 (7 mM Mg2+; full composition not in material), 30 min at 37 C, A-site peptidyl-tRNA: buffer TAKM with 7-20 mM Mg2+, nitrocellulose ….
The test system of data set [3] is 30S ribosomal subunit initiation complex with IF1, IF2, IF3 and elongator BPY-Phe-tRNAPhe. Put plainly: MST. Conditions: 60 uM amicoumacin A, MST: buffer TAKM7 (7 mM Mg2+; full composition not in material), 30 min at 37 C, A-site peptidyl-tRNA: buffer TAKM with 7-20 mM Mg2+, nitrocellulose ….
The test system of data set [4] is 30S ribosomal subunit initiation complex without IF3 (IF1, IF2, BPY-Met-tRNAfMet). Put plainly: MST. The following applies: MST: buffer TAKM7 (7 mM Mg2+; full composition not in material), 30 min at 37 C, A-site peptidyl-tRNA: buffer TAKM with 7-20 mM Mg2+, nitrocellulose ….

We go through 3 substances from publication PMC7907450.

Turning to fMet-[14C]Val-tRNAVal, the dissociation constant Kd in data set [1] (30 uM amicoumacin A) was found to be 461 nM; in data set [1] (no antibiotic), 688 nM.
On to model mRNA AUG (Met-Phe), for which the Kd in data set [2] (30 uM edeine) was determined as 568 nM; in data set [2] (60 uM amicoumacin A), 169 nM; in data set [2] (60 uM kasugamycin), 59 nM; in data set [2] (no antibiotic), 18 nM; in data set [3] it was 940 nM; in data set [4] (no IF3, amicoumacin A), 77 nM. Moreover, the Kd in data set [4] (no IF3, no antibiotic) came to 1280 nM.
Regarding model mRNA UUC start codon, the equilibrium dissociation constant (Kd) in data set [2] (60 uM amicoumacin A) is 584 nM; in data set [4] (no IF3, amicoumacin A), 587 nM; in data set [4] (no IF3, no antibiotic) it was 1270 nM.

As a reminder, the Kd is a measure of binding affinity in units of concentration. A higher Kd goes with a looser complex.
